test: soluble on expression in E. coli; label from the status in PepcDB or PDB records

| Sequence | soluble on expression in E. coli |
| --- | --- |
| MSLASLSLAPVNIFKAGADEERAETARLTSFIGAIAIGDLVKSTLGPKGMDKILLSSGRDASLMVTNDGATILKNIGVDNPAAKVLVDMSRVQDDEVGDGTTSVTVLAAELLREAESLIAKKIHPQTIIAGWREATKAAREALLSSAVDHGSDEVKFRQDLMNIAGTTLSSKLLTHHKDHFTKLAVEAVLRLKGSGNLEAIHIIKKLGGSLADSYLDEGFLLDKKIGVNQPKRIENAKILIANTGMDTDKIKIFGSRVRVDSTAKVAEIEHAEKEKMKEKVERILKHGINCFINRQLIYNYPEQLFGAAGVMAIEHADFAGVERLALVTGGEIASTFDHPELVKLGSCKLIEEVMIGEDKLIHFSGVALGEACTIVLRGATQQILDEAERSLHDALCVLAQTVKDSRTVYGGGCSEMLMAHAVTQLANRTPGKEAVAMESYAKALRMLPTIIADNAGYDSADLVAQLRAAHSEGNTTAGLDMREGTIGDMAILGITESFQVKRQVLLSAAEAAEVILRVDNIIKAAPRKRVPDHHEGHHHHHH | not soluble |
| SLINNLSTHSYWPNRGQLEVQGLTVKYTEAGRAVLNDISFSVDGGQSVGLLGRTGSGKSTLLSALLGLNYTEGEMFIDGVSSSSMPLEAWRKAFGVVPQKVFILTGTFRMNLDPYGRYSDDELWRVAEEVGLKSVIEQFPDKLDFELKDGGSVLSNGHKQLMCLARSILSKARILLLDEPSSYLDPITLQVLRKTLKQSFSGCTVILSEHKVEPLLECDSFLMIEKSSVKSYDSIQKLMNEMSDLKQAISPAD | not soluble |
| MGSDKIHHHHHHMRGEVKKIIEAIGDIFIGHEDVIRKVLAVALVNGNILFEDYPGLGKTLLAKAFAKILGLKFKRIQFTPDLLPADIIGTKVWKPEKGAFEVVKGPIFTNILLADEINRAPPKTQSALLEAMEERQVTIEGETFKLERPFFIIATQNPLELEGTYPLPEAQLDRFLVRLNIGYPRNEEDELEILKARLRWGKDDPTSDISPIISREDFIRMQEEVERGVIIHDDILRYIVRLVRRIREDERIEAGPSPRGGLALMKLAKANAFIEGRSYVIPDDVKYFAVEALAHRIVLKPEYSLERGIAEEIIREVLEEVPVPKDIRY | not soluble |
| MGSDKIHHHHHHMTTKLDQLTSWLKERKITEVECLISDLTGIARGKISPTNKFIAEKGMRLPESVLLQTVTGDYVEDDIYYDLLDPADIDMVCRPDENAVFLVPWAIEPTAMVIHDTFDKLGNPIELSPRNILKRVLKMYADKGWRPIVAPEMEFYLTKRSDDPDYPLQAPVGRSGRQETGRQSFSIDAANEFDPLFEDMYDWCEAQGLDLDTLIHEEGTAQMEINFRHGDALDLADQILVFKRTMREAALKHNVAATFMAKPMTGEPGSAMHLHQSIVDVKTGKNIFSNADGTMSELFLHHIGGLQKFIPEVLPLFAPNVNSFRRFLPDTSAPVNVEWGEENRTVGLRVPDSSPENRRVENRLAGADANPYLALAASLLCGYIGMVEGIKPSAQVKGRGYERRNLRLPLTIEAALERMENCKPLEQYLGSKFISGYVAVKRAEHENFKRVISSWEREFLLLSV | not soluble |
| MWYQKTLTLSAKSRGFHLVTDEILNQLADMPRVNIGLLHLLLQHTSASLTLNENCDPTVRHDMECFFLRTVPDNGNYEHDYEGADDMPSHIKSSMLGTSLVLPVHKGRIQTGTWQGIWLGEHRIHGGSRRIIATLQGELEHHHHHH | not soluble |
| MKPRIYVKVKPERLGAVIGPRGEVKAEIMRRTGTVITVDTENSMVIVEPEAEGIPPVNLMKAAEVVKAISLGFPPEKAFRLLEEDQILVVVDLKQVVGDSQNHLKRIKGRIIGEGGRARRTIEEMTDTYINVGEYEVAIIGDYERAMAAKQAIEMLAEGRMHSTVYRHLERIMREIKRRERLKMWAREEL | soluble |
| MSLKQYSVKELTKLYKFLVIKANETRKLTLQDKNGIVKSNTDYNGVINRAQLGYDNILDILPSVSGSYSKPKYIISSNLMCYTGITGIYFPFTGEANVNIAIPDLYIPCTVEHEMAHQRGFASEDEANFIAYLTSIKHPNIDFNYSGYILALNYTASALSKVDYNAYVDISAGISDSVRRDLKNESEFWQKYEGKINEISNEFNNSYLKANGVTEGTQSYGKMVDLLLTYYELYPYNEGHHHHHH | soluble |
| SITKPQNKSAKLVDGELLVKASVESFGLEDEKYWFLVCCELSNGKTRQLKRYYQDFYDLQVQLLDAFPAEAGKLRDAGGQWSKRIMPYIPGPVPYVTNSITKKRKEDLNIYVADLVNLPDYISRSEMVHSLFVVLNNGFDREFERDENGSHHHHHH | soluble |
| VSPRPGPAGRGPAPCRCADLHSLCVDSHALRRDGMRFLHTADWQLGMTRHFLAGDAQPRYSAARRDAVAGLKALAADVGAEFVVVAGDVFEHNQLAPQIVGQSLEAMRVIGLPVYLLPGNHDPLDASSVYTSTLFRAERPDNVVVLDRAGVHEVRPGVQIVAAPWRSKAPTTDPVAEVLAGLPTDAAIRLLVAHGGVDALDPDHDKPSLIRLAALDDALTRQAIHYVALGDKHSLTQVGSSGRVWYSGAPEVTNFDDVEPDPGHVLVVDIDESDPRHPVTVDARRIGRWRFVTLHHQVDTSRDIADLDLNLDLMTDKDRTVVRLALTGSLTVTDRAALDTCLDKYARLFAWLGLWERHTDLAVIPVDAEFTDLGIGGFAAAAVDELVATARGGDDESAVDAQAALALLLRLADRGAA | not soluble |
| MGSDKIHHHHHHMNILEYENYHEDKTHVELTFPYNTYLCSIPLDFSGVPLHWHDDMELIYIKKGCGHISVDFKEYHVTAPSLVLILPGQLHSIDQYMDESMEYENIIFSLSMLLPGKYDYTKEDFLTPLLAGRFTVPTVFTPVYPYYEDVVAPIDACDEICKTMPQGYQLYIKSKLYEFFFVLDNRCRNLTKPLKSKKTLDKMKVVLKYVENNYADKISIADIADVAGFSESHFMRYFKETMGTSFVDYLKDYRLTMAARLLQSSDSSVLSISGEVGFESLSYFNRAFKKHYGMTPLQYRKGS | not soluble |
| QPSPPQRPNRCTVCRKRVGLTGFMCRCGTTFCGSHRYPEVHGCTFDFKSAG | soluble |
| MQNEGQYAEADALLLSLVAAKDAHLMGERTVLGLPRRLHAARLRLAKAEGDLVARIGYQYTLVPPPDMLAKYTQFSAEDRRMINRKSREDVPRLIHQIWIGEKAPPISVKAWAAHAARHGYDYRLWREADLEREGVFSNAIFNRMLSEGDYPGAVDVARYILLERFGGIYLDCDWYPARDDRSFDAFVPLAGLTAFDEKTPRDTGQGSMLLANSFIAAPAGHPVFRKMLDSFPGIIEEMPRAPAWWSTGPLIFTVIARAGSISLAPASFVAVTLADRAPLEEVEAIRRELATQDSGMLIAWKSWLEHHHHHH | soluble |
| GPGSMSSLTEGARASHTSSKEAGYYRLQSPKHINIDPCVYEIRTMRGSGPGGQGTNSSSNKVELRADMELLSEFFDEELLAALRRHEAGGALTNDGTTIVVSCHEHRSALQNKEGCLRKLQTLLHKASWVPPAEAGLVERPSFIVTEQKVRRRKKSNMNRMTRSARSGSW | soluble |
| MHHHHHHSSGVDLGTENLYFQSMVKPAGPTVEQQGEMARSGGRMLATLEPEQRAEIIHHLADLLTDQRDEILLANKKDLEEAEGRLAAPLLKRLSLSTSKLNSLAIGLRQIAASSQDSVGRVLRRTRIAKNLELEQVTVPIGVLLVIFESRPDCLPQVAALAIASGNGLLLKGGKEAAHSNRILHLLTQEALSIHGVKEAVQLVNTREEVEDLCRLDKMIDLIIPRGSSQLVRDIQKAAKGIPVMGHSEGICHMYVDSEASVDKVTRLVRDSKCEYPAACNALETLLIHRDLLRTPLFDQIIDMLRVEQVKIHAGPKFASYLTFSPSEVKSLRTEYGDLELCIEVVDNVQDAIDHIHKYGSSHTDVIVTEDENTAEFFLQHVDSACVFWNASTRFSDGYRFGLGAEVGISTSRIHARGPVGLEGLLTTKWLLRGKDHVVSDFSEHGSLKYLHENLPIPQRNTN | soluble |
| MKTKQTIAASTLALAMIAGANSAHAEVNDATPQQSTGDRLAEIKQHKQGLDAKLQQHKENVDQTLNELNKVKENVDTKVNELHERKQVADEKINEIKQHKQELDAKLQQDKQIAEDKIAEIKEHKKQVEDKVAEVKEHKQNIDNKVNEIKEHKQTVDEKVNEMKQHKENIDQKVNELKEVKKQVDEKLAELKKAKQTAEDKLAELKENKPNTGNTLEELKKIKSNLDSLSANLELAKQDVKNKLAALQEARQDLINKINEIKQSKQTVSDDLSKKKQDLDIKINDFKHTEKKIDDKLAEIHTTKQNIDNKINEVSQSKQTETKTGTTNANNNARELPNAGSKQSNNMALGMLSVLGGILLVTRNKIKTLFSK | not soluble |
| MSFVHQKCRNIDTVYLGSNIHRLNVPDNLVKWSQEWSGYNPPAHTDPKVDGAVWADPEIDEKTFQPSWNAIDGKINRVSYVCQYSFDPVTLRPLNPIGRTGLSGRGLLGRWGPNHAADPIVSRTNDNGDLEFVAVQRHDNGEWAIPGGMVDAGEHVSQTLRREFAEEAMHGIVDSENLDELWNNGKELYRGYVDDPRNTDNAWMETVVFNFHDSKGLLKNVALQAGDDAKALRWIAVNSNEPLYASHSHFIDLLKESHSH | not soluble |
| MSAQVSLELHHRISQFLFHEASLLDDWKFRDWLAQLDEEIRYTMRTTVNAQTRDRRKGVQPPTTWIFNDTKDQLERRIARLETGMAWAEEPPSRTRHLISNCQISETDIPNVFAVRVNYLLYRAQKERDETFYVGTRFDKVRRLEDDNWRLLERDIVLDQAVITSHNLSVLF | soluble |
| MGSDKIHHHHHHMQSGMYVSLSSQRALDKRLTTIADNMANVNTVGFRGTEVKFDEVVSRTGNDQNAKIAFVSQGNDYLNTQSGEMLQTGGTLDFAVKGDAWFSIDTPAGPALTRDGRFTMTSTGQLVSVRGYSVLDAGGGPIQLDPNGGEPHVGADGTINQNGRQISQIGLFTADISKGYLRTENSGVITTDRPQAVVDDATIGVMQGYVEQSNVNGISQMTQLIQVSRAFESISASMSQTENSMSETIKTLGGSK | not soluble |
| MGHHHHHHSHMPVIQTESEHKPPVNGSYFAHVNPADGGCLLEKYSEKCHDFQCALLANLFASEGQPGKVIEVKAKRRTGPLNFVTCMRETLEKHYGNKPIGMGGTFIIQKGKVKSHIMPAEFSSCPLNSDEEVNKWLHFYEMKAPLVCLPVFVSRDPGFDLRLEHTHFFSRHGEGGHYHYDTTPDIVEYLGYFLPAEFLYRIGQPKETHSIGRD | not soluble |
| MSLKSADSATQQYLKEKHEEYLSLQHGLQRREETLLATVNQIVVNQHAFLLHQAALAPLLLRDVAKALQVNESTVSRTIKGKHLQTDLGIFAFKDFFSKRTQAVSSSAYHSVDQLKFTMMQLIQSENKMCPASDNLLVKWLYEKGFKVARRTVTKYRNELGLPAASARKSREGHHHHHH | soluble |
| MGSDKIHHHHHHMNYVKSKQRVADHGEVFTPAWLVEAMIDLVKDETERIDARFLEPACGSGNFLVPILQRKLAAVERKFGKSNFEKQHYALFAVMCTYGIELLADNIAECRANMLEIFADYLTLDESDELYRAAIYVLSQNLVHGDALKMRTSDGQPIAFAEWGYLGKGKFQRRDFRLDSLAMSSTFSVEGSLFAHLGKHEIFTPTRTYPPMTVSELAARAAEANL | not soluble |
| SLDEITAVVRTAARELVSADGATFVLRENGNCFYADEDAIAPLWKGLRFPLERCISGWVMLNRQAAVIEDIYQDQRIPVEAYRPTFVQSLAMVPIRGEDPIGAIGTYWARRH | not soluble |
| GMEVIESKWYKKDGASSASIDDVEKLLNTTLPKQYKSFLLWSNGGEGKLGDNYIYIWAIEDVIAYNHDYGIQKYLQKEYWAFGMDGDIGYILHLSDNSIYRVDLGDLDITSIKYIAPSFDDFLGKAIYLNFNKLQNVANNNLTT | soluble |
